From US20220370611

Tested on: T1, VPF-FRRG(SEQ ID NO: 1)-DOX self-assembled nanoparticles (LT-NPs)
T1 sequence: FRRG

## cathepsin B (Cat-B) protease
  cleavage of LT-NPs after enzymatic reaction with cathepsin B (RP-HPLC at 0, 9 and 24 h; fluorescence spectrophotometry): the self-assembled nanoparticles (LT-NPs) were cleaved by cathepsin B to release doxorubicin and the photosensitizer
  morphology by transmission electron microscopy after 24 h reaction with cathepsin B (50 ug/mL): the self-assembled nanoparticles (LT-NPs) were degraded by cathepsin B present in cancer cells and existed in an activated state
